This assay addresses GLP-1R on Rinm cells. The experiment in a line: cell-based or functional assay.

Turning to “GLP-1 peptide (from UniProt P01275 98-127)”, the cAMP activity in Rinm cells, EC50 was 0.4 nM.

Source of the values: patent publication US20090325873A1, “HUMAN GLP-1 MIMETIBODIES, COMPOSITIONS, METHODS AND USES” (CENTOCOR, INC., priority 2006, published 2009).
